Test results reported in patent publication US8669345.

Experiments:
[1] = target: sNgR310 (recombinant fragment of rat NgR1, aa 27-310) (rat) (UniProt Q99M75); assay: SPA, unlabelled Nogo66 (x axis Nogo66 Conc [M]) displacing 125I-Nogo66 from sNogoR310; Bound SPA cpm falls from about 2900 to about 2050; the unit stands on the axis, not in the table
sNogoR310-Fc (rat) = sNogoR310-Fc (rat) (UniProt Q99M75); assay: SPA, unlabelled Nogo1-40 (x axis Nogo1-40 [M]) displacing 125I-Nogo1-40-C from sNogoR310-Fc; the unit stands on the axis, not in the table
Sequence of sNogoR310-Fc (rat) (Q99M75 other isoform, or with tags, fused parts or gaps): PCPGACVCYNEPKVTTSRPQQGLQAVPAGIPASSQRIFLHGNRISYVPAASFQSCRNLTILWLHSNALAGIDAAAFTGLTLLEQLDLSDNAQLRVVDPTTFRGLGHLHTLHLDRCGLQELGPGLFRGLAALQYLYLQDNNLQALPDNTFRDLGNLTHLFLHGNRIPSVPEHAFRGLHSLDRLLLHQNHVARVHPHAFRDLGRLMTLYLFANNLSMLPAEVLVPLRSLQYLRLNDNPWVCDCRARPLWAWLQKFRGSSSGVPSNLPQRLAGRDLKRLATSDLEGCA

Nogo1-40 = assay: SPA competition: Ig-sNogoR1-310 added in rising amount [ug] against binding of 125I-Nogo1-40-C to sNogoR310
Sequence of Nogo1-40 (Q9NQC3 1055-1094): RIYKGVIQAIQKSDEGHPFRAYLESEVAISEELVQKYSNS

Sequence of sNgR310 (recombinant fragment of rat NgR1, aa 27-310) (rat) (Q99M75 other isoform, or with tags, fused parts or gaps): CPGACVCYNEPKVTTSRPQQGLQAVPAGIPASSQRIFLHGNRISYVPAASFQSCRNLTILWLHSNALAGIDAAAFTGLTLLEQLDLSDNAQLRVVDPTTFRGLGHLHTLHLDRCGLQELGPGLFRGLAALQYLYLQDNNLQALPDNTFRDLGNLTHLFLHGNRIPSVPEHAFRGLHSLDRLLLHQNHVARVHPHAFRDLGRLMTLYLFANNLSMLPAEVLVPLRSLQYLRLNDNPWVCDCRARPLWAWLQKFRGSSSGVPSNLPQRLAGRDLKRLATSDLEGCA
Sequence of Nogo1-40 (peptide) (Q9NQC3 1055-1094): as the sequence (Q9NQC3 1055-1094) above

Nogo66 (ligand)
EC50 [1]: 303 nM

Nogo1-40 (peptide)
EC50 (sNogoR310-Fc (rat)): 120 nM

sNogoR310-Fc (from UniProt Q99M75 26-310) (Fc fusion)
IC50 (Nogo1-40): 100 nM
